Among the data in patent US20260146091A1 (published 2026) are IC50 values, retold here.

The target in assay [1] is mPD-L1-Fc (mouse PD-L1 ectodomain fused to human IgG1 Fc, BioLegend) (mouse, UniProt Q9EP73 19-239). Description: mPD-1/mPD-L1 binding inhibition.
For assay [2], the target named is biotinylated hPD-L1 fused to human IgG Fc (BPS Bioscience) (human, UniProt Q9NZQ7 19-238, biotinylated (site not stated)). Description: hPD-1/hPD-L1 binding inhibition.
Assay [3] deals with T1, biotinylated mPD-1-Fc (BPS Bioscience) (mouse, UniProt Q02242 25-169, biotinylated (site not stated)).
T1 chain: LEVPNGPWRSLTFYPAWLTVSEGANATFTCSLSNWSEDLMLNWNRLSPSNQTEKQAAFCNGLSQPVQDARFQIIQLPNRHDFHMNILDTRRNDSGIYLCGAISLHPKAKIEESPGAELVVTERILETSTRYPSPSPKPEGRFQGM
Description: mPD-1/mPD-L1 binding inhibition.

Assay [4] addresses hPD-1-Fc (human PD-1 ectodomain fused to human IgG1 Fc, R&D) (human, UniProt Q15116 25-170). Description: hPD-1/hPD-L1 binding inhibition.

The term IC50 denotes the concentration that inhibits the measured activity by half. A higher IC50 goes with weaker potency in that assay.

Chain of mPD-L1-Fc (mouse PD-L1 ectodomain fused to human IgG1 Fc, BioLegend) (Q9EP73 19-239): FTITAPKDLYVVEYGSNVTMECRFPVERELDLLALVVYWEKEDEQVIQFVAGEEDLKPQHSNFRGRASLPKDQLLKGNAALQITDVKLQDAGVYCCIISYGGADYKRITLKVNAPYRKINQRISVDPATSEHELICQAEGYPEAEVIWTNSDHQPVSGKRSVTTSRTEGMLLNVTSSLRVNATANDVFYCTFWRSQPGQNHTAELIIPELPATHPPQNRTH
Chain of hPD-1-Fc (human PD-1 ectodomain fused to human IgG1 Fc, R&D) (Q15116 25-170): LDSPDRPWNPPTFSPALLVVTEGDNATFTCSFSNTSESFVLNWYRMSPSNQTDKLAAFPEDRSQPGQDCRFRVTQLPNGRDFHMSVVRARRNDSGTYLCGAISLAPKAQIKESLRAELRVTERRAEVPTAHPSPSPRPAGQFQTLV
Chain of biotinylated hPD-L1 fused to human IgG Fc (BPS Bioscience) (Q9NZQ7 19-238): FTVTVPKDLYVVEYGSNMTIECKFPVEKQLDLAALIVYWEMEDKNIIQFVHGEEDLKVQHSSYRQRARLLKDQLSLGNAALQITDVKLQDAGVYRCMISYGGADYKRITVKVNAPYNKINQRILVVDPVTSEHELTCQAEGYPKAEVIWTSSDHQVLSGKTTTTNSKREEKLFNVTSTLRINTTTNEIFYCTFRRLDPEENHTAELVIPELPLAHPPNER

B1: Nb6p (anti-PD-L1 nanobody) (VHH)
VHH: EVQLVESGGGLVQAGGSLRLSCAAAGRSFNSNAMGWVRQAPGKEREIVAVISATGSYTYYEDSVKGRFTISRDNSKNTVSLQMSSLSSEDTAVYYCAGSRTAALTTIMTLFNYWGQGTQVTVSS
Regarding B1, the IC50 in assay [1] was determined as 6.85 nM; in assay [2], 3.34 nM.

B2: Nb11 (anti-PD-1 nanobody) (VHH)
VHH: QVQLVQSGGGSVQAGDSLRLSCAVSGHPDSSYSMAWFRQAPGKERELVALISWSGAITHYSDSVKDRFTISRDNAKNEMYLQMDSLKPEDTAVYFCQADDPTSELNQYWGQGTQVTVSS
For the molecule B2, the values for the IC50 in assay [3] and in assay [4] were 1.71 nM and 5.85 nM, respectively.

B3: Nb6p-Fc (Nb6p fused to mouse IgG2a Fc domain including hinge) (Fc fusion)
chain: AEVQLVESGGGLVQAGGSLRLSCAAAGRSFNSNAMGWVRQAPGKEREIVAVISATGSYTYYEDSVKGRFTISRDNSKNTVSLQMSSLSSEDTAVYYCAGSRTAALTTIMTLFNYWGQGTQVTVSSPGPRGPTIKPCPPCKCPAPNLLGGPSVFIFPPKIKDVLMISLSPIVTCVVVDVSEDDPDVQISWFVNNVEVHTAQTQTHREDYNSTLRVVSALPIQHQDWMSGKEFKCKVNNKDLPAPIERTISKPKGSVRAPQVYVLPPPEEEMTKKQVTLTCMVTDFMPEDIYVEWTNNGKTELNYKNTEPVLDSDGSYFMYSKLRVEKKNWVERNSYSCSVVHEGLHNHHTTKSFSRTPGK
In the case of B3, the concentration for half-maximal inhibition (IC50) was 0.889 nM in assay [1] and 0.498 nM in assay [2].

B4: Nb11-Fc (Nb11 fused to mouse IgG1 Fc domain including hinge) (Fc fusion)
chain: AQVQLVQSGGGSVQAGDSLRLSCAVSGHPDSSYSMAWFRQAPGKERELVALISWSGAITHYSDSVKDRFTISRDNAKNEMYLQMDSLKPEDTAVYFCQADDPTSELNQYWGQGTQVTVSSGCKPCICTVPEVSSVFIFPPKPKDVLTITLTPKVTCVVVDISKDDPEVQFSWFVDDVEVHTAQTQPREEQFNSTFRSVSELPIMHQDWLNGKEFKCRVNSAAFPAPIEKTISKTKGRPKAPQVYTIPPPKEQMAKDKVSLTCMITDFFPEDITVEWQWNGQPAENYKNTQPIMDTDGSYFVYSKLNVQKSNWEAGNTFTCSVLHEGLHNHHTEKSLSHSPGK
Regarding B4, the half-inhibitory concentration (IC50) in assay [3] turned out to be 0.0439 nM; in assay [4], 0.147 nM.
